According to PMC3531375:

Molecular target: MAP1B light chain 1, C-terminal myc-tag, expressed in COS7 cells (UniProt P15205)
Sequence of UniProt P15205 (P15205 2210-2459): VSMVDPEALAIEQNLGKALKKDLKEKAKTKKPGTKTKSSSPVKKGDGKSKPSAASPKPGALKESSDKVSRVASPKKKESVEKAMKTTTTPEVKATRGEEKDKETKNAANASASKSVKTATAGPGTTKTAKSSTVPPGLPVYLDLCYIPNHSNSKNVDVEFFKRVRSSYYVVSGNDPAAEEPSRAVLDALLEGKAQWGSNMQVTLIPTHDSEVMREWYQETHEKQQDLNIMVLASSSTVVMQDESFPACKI

“N-terminal truncated Tiam1 (C1199), C-terminal HA-tag (domain or fragment)” gave a Rac1-GTP pulled down by GST-PAK1 CRIB domain from lysates of COS7 cells co-expressing Tiam1 (C1199 HA) and myc-tagged LC1, relative to total Rac1 of 2 fold.
